Experimental findings from paper PMC4577212, “X-Ray Structure and Mutagenesis Studies of the N-Isopropylammelide Isopropylaminohydrolase, AtzC” (PLoS ONE, 2015) are described below.

Data set [1] concerns the molecule itself. The experiment in a line: SEC; Superdex 200 prep-grade, 130 mL column, 50 mM TRIS pH 7.5, 100 mM NaCl; native molecular mass of ~210 kDa. Background: In gel filtration, larger molecules generally elute earlier.
Data set [2] deals with the molecule itself. The experiment in a line: crystal structure; thrombin-treated protein, 2.4 M sodium malonate pH 7; space group C2, half of the tetramer in the asymmetric unit; 1.84 Å; oligomer assessed with PISA.

The stoichiometry N is the number of molecules, sites or subunits per partner or assembly.

B1: N-isopropylammelide isopropylaminohydrolase AtzC from Pseudomonas sp. strain ADP, His-tagged (enzyme, UniProt O52063 1-403, looked up)
chain: MSKDFDLIIRNAYLSEKDSVYDIGIVGDRIIKIEAKIEGTVKDEIDAKGNLVSPGFVDAHTHMDKSFTSTGERLPKFWSRPYTRDAAIEDGLKYYKNATHEEIKRHVIEHAHMQVLHGTLYTRTHVDVDSVAKTKAVEAVLEAKEELKDLIDIQVVAFAQSGFFVDLESESLIRKSLDMGCDLVGGVDPATRENNVEGSLDLCFKLAKEYDVDIDYHIHDIGTVGVYSINRLAQKTIENGYKGRVTTSHAWCFADAPSEWLDEAIPLYKDSGMKFVTCFSSTPPTMPVIKLLEAGINLGCASDNIRDFWVPFGNGDMVQGALIETQRLELKTNRDLGLIWKMITSEGARVLGIEKNYGIEVGKKADLVVLNSLSPQWAIIDQAKRLCVIKNGRIIVKDEVIVA
notes: AtzC, N-isopropylammelide isopropylaminohydrolase (E.C. 3.5.99.4), Pseudomonas sp. strain ADP; The tag carries a thrombin site; also called wild-type AtzC; tagged AtzC protein; source: E. coli BL21 (λDE3), purified (Ni-NTA, Superdex 200 SEC); not shown: His-tag, N-terminal, kept
Consider B1, for which the “stoichiometry N” value in data set [1] was found to be 4.

B2: N-isopropylammelide isopropylaminohydrolase AtzC from Pseudomonas sp. strain ADP, thrombin-treated (His-tag removed) (enzyme, UniProt O52063 1-403, looked up)
chain: MSKDFDLIIRNAYLSEKDSVYDIGIVGDRIIKIEAKIEGTVKDEIDAKGNLVSPGFVDAHTHMDKSFTSTGERLPKFWSRPYTRDAAIEDGLKYYKNATHEEIKRHVIEHAHMQVLHGTLYTRTHVDVDSVAKTKAVEAVLEAKEELKDLIDIQVVAFAQSGFFVDLESESLIRKSLDMGCDLVGGVDPATRENNVEGSLDLCFKLAKEYDVDIDYHIHDIGTVGVYSINRLAQKTIENGYKGRVTTSHAWCFADAPSEWLDEAIPLYKDSGMKFVTCFSSTPPTMPVIKLLEAGINLGCASDNIRDFWVPFGNGDMVQGALIETQRLELKTNRDLGLIWKMITSEGARVLGIEKNYGIEVGKKADLVVLNSLSPQWAIIDQAKRLCVIKNGRIIVKDEVIVA
notes: AtzC, N-isopropylammelide isopropylaminohydrolase (E.C. 3.5.99.4), Pseudomonas sp. strain ADP; unmodified atzC gene (GenBank U66917.2) in pETCC2; tag removed by thrombin in the crystallisation sample without further purification; One Zn2+ ion per monomer; malonate in the active site of the crystal; also called WT; native protein; source: E. coli BL21 (λDE3), purified (Ni-NTA, Superdex 200 SEC), …
For the protein B2, the “stoichiometry N” value in data set [2] is 4.
